Experimental findings from article PMC2330244 are described below.

Read-outs that look alike come from different tables or passages of the source.

Common to all, as to assay: EMSA
On the technique in general: Mobility shift assays separate free from complexed probe on a gel.

For one series, the target named is T1, p73δ (UniProt O15350-4 1-403).
T1 sequence: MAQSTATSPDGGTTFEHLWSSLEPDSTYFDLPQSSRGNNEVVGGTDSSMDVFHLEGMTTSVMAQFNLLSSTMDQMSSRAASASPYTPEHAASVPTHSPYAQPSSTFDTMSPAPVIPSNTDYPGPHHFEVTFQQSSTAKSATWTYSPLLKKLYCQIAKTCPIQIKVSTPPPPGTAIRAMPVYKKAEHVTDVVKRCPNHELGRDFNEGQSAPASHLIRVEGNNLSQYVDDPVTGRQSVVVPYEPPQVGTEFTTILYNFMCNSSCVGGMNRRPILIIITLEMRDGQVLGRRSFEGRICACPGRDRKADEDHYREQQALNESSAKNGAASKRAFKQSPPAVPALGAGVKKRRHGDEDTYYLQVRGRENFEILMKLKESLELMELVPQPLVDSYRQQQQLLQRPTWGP

Another series deals with T2, p73β (UniProt O15350-2 1-499).
T2 sequence: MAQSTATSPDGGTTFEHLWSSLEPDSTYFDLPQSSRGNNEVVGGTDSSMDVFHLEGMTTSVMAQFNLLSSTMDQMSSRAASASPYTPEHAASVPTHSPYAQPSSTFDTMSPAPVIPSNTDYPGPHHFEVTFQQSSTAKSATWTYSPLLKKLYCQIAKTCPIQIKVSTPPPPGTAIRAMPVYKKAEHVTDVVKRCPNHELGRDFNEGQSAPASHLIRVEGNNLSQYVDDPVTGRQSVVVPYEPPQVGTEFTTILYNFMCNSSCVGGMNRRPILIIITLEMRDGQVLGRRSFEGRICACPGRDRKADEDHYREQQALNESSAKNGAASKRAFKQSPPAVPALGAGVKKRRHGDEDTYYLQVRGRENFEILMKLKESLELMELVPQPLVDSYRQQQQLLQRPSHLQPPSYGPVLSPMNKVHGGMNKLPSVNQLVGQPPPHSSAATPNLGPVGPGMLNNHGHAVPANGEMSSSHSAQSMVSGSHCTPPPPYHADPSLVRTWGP

For series [1], the target named is T3, p73α (UniProt O15350 1-636).
T3 sequence: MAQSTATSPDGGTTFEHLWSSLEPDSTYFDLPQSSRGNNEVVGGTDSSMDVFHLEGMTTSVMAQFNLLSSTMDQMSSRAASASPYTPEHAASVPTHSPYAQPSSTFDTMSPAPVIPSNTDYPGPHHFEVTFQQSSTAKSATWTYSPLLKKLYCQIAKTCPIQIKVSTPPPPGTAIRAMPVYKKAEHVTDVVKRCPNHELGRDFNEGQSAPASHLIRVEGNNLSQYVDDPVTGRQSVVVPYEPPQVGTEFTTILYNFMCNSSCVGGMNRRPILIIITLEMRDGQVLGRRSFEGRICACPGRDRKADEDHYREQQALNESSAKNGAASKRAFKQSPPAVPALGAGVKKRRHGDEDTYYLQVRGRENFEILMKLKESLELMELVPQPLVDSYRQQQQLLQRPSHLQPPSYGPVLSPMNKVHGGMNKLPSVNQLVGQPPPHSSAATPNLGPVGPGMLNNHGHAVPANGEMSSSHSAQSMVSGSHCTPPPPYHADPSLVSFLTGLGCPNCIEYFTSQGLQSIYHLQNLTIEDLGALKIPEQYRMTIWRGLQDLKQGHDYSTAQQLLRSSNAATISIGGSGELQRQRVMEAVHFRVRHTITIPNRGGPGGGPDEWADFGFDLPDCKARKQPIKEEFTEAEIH

Series [2] has as its target T4, p53 (human, UniProt P04637 1-393).
Series [3] has as its target T5, p73α+30 (UniProt O15350 1-636+P04637:364-393, internal_change).
For series [4], the target named is T5, p73α+30. The source holds these as a separate data set.
For series [5], the target named is T3, p73α. This is another data set of the same source.
The target in a further series is T6, p73γ (UniProt O15350-3 1-475).
T6 sequence: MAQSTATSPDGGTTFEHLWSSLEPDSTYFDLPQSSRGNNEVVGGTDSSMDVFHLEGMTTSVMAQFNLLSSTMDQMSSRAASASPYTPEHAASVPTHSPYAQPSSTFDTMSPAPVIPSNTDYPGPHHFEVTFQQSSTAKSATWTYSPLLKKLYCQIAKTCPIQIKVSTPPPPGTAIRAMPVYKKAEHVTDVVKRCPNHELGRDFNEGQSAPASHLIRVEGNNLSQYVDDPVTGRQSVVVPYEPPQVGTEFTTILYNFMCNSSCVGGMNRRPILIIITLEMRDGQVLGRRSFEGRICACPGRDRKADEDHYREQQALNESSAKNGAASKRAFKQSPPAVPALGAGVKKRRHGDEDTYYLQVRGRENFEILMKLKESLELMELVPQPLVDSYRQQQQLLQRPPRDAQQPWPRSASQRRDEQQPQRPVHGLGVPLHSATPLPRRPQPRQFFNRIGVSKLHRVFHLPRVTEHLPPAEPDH

Series [6] addresses T4, p53. The source holds these as a separate data set.
Series [7] deals with T5, p73α+30. This is another data set of the same source.
Series [8] concerns the target T4, p53. This is another data set of the same source.

T4 sequence (P04637 whole entry): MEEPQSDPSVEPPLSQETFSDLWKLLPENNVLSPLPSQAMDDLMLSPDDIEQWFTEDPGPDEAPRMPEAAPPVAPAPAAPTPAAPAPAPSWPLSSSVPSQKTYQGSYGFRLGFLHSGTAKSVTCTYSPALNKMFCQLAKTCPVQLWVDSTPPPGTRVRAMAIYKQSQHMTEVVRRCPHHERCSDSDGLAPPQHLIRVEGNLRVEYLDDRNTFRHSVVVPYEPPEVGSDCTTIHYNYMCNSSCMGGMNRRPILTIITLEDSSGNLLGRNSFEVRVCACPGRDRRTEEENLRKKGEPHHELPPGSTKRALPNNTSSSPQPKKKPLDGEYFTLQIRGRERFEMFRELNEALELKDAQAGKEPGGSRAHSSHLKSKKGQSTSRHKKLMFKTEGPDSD

B1: p53 consensus (dsDNA)
DNA 1: GGGTAGACATGCCTAGACATGCCTAAGCTCCC
DNA 2: GGGAGCTTAGGCATGTCTAGGCATGTCTACCC
As for B1, the binding result with p73δ, with p73β, with p73α [1], with p53 [2] and in the series with p73α+30 [3] was “binds” in each case.

B2: p21-5' site 66 bp (dsDNA)
DNA 1: AGCATTGGCTTTCTGGCCATCAGGAACATGTCCCAACATGTTGAGCTCTGGCATAGAAGAGGCGCT
DNA 2: AGCGCCTCTTCTATGCCAGAGCTCAACATGTTGGGACATGTTCCTGATGGCCAGAAAGCCAATGCT
As to B2, in the series with p73α+30 [4], the binding signal is ~5 fold vs 28 bp oligonucleotide. Moreover, the binding result with p73α [5], with p73γ and in the series with p53 [6] was “binds” each time.

B3: p21-5' site 28 bp (dsDNA)
DNA 1: TCAGGAACATGTCCCAACATGTTGAGCT
DNA 2: AGCTCAACATGTTGGGACATGTTCCTGA
In the case of B3, the binding signal in the series with p73α+30 [7] was 1 fold (reference for 66 bp). Besides, the binding result with p73α [5] and in the series with p53 [8] was “binds” each time.
